Test results taken from US9051572.

What was measured:
[1] = biological target: Purified recombinant ubiquitin containing an amino terminal FLAG sequence (UniProt P0CG48)
[2] = biological target: in vitro translated [35S] TAp73α (UniProt O15350)
[3] = biological target: in vitro translated [35S] TAp73δ (UniProt O15350)
[4] = biological target: in vitro translated [35S] p53 (UniProt P04637)

“GST-Itch MUT (C830A), Thr 277 to Glu 903” was tested, and the “ELISA for self-ubiquitination of Itch, OD450 signal” value [1] was “a background signal of 0.093 was obtained” and the “in vitro ubiquitination (higher molecular weight [35S] species on SDS-PAGE)” value (shortened to “in vitro ubiquitination”) [2] was “this mutant, that retains the ability to bind TAp73 ... lost the ability to promote TAp73 ... ubiquitination”.

With “GST-Itch, from Thr 277 to Glu 903 (lacking the N-terminal C2 domain)” the “ELISA for self-ubiquitination of Itch, OD450 signal” value [1] was “an assay OD450 signal of 1.972 was obtained”, the “in vitro ubiquitination” value [3] was “The inability of Itch to ubiquitinate p738 and p53” and the “in vitro ubiquitination” value [2] was “protein was ubiquitinated, as shown by the appearance of discrete higher molecular weight”. The “in vitro ubiquitination” value [4] was “The inability of Itch to ubiquitinate p738 and p53”.
